Laboratory results reported in patent US20250197451A1 (CAPITAL MEDICAL UNIVERSITY SCHOOL OF STOMATOLOGY, published 2025).

Molecular target: T1, biotin-labelled EZH2 protein (UniProt Q15910 1-746, limits assumed, biotin label (EZ-link NHS-PEO4-Biotinylation kit))
T1 construct: Probe in solution (1 ug/ml) on the KDM2B peptide microarray; also called NHS-PEO4-Biotinylation-labelled EZH2 protein; recombinant protein
Test: KDM2B peptide array probed with biotin-EZH2 1 ug/ml, SA-HRP/ECL;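 note: Background-corrected optical density of each spot on the membrane, given as percent of the brightest spot (100%), color developed for 5 minutes; 100% is the highest background-corrected spot optical density on the membrane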
Experimental: After blocking, the polypeptide microarray was incubated with biotin-labeled target protein for hybridization, visualized with the chemical chromogenic substrate and imaged using a Chempchemi digital imager. The image of colored polypeptide microarray was analyzed for the optical density of the colored points. Particularly, the optical density of each colored point was calculated using the optical density of the respective surrounding background as a reference for background correction. The highest optical density value of the colored point on membrane was set to 100%, and the optical density value of the remaining colored points was converted into percentages relative to the highest value. The points with an optical density percentage of more than 30% on the polypeptide membrane and also with an optical density percentage of less than 30% on the negative membrane were defined as positive colored points.
For the hybridization experiment, a solution of NHS-PEO4-Biotinylation-labelled EZH2 protein (1 μg/ml) was used for the hybridization of the polypeptide microarray. Streptavidin-HRP was used to amplify the reaction signal according to the experimental procedure and conditions described above, and the time of color development was 5 minutes.

T1 sequence (Q15910 whole entry): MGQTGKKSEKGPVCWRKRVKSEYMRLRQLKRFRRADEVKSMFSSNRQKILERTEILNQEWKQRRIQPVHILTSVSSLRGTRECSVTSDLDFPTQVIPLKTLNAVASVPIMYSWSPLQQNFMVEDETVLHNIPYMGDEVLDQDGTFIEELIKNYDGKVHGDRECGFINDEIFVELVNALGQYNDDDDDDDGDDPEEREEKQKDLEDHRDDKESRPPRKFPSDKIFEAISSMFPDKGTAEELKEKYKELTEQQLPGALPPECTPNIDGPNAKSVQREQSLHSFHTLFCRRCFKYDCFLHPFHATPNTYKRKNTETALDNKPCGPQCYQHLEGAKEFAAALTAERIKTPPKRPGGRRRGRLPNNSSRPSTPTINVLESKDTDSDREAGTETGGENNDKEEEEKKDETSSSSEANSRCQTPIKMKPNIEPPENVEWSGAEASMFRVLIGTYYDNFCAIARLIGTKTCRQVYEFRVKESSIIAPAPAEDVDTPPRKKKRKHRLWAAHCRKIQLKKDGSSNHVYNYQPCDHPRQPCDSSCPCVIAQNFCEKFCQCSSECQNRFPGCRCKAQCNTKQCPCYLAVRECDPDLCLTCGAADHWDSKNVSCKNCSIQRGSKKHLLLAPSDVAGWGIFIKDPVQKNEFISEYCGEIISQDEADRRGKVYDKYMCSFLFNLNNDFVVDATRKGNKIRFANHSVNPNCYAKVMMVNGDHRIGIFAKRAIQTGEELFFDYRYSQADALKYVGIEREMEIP

| Binder | Intensity (%) |
| --- | --- |
| RGGKIFWLIPPTLHN [peptide 52] | 0.55 |
| KKTVIYTKCFEFESA [peptide 6] | 27.5 |
| VDWVDNMWPQHLKEK [peptide 40] | 0 |
| RKRHAAEKQKKKTVI [peptide 4] | 0 |
| FHIDFGGTSVWYHVF [peptide 49] | 0 |
| GCFTDFHIDFGGTSV [peptide 48] | 0 |
| LMSVKGCFTDFHIDF [peptide 47] | 100 |
| MDVNTQKGTEMSMSQ [peptide 29] | 5.32 |
| EDHPPRKRHAAEKQK [peptide 3] | 0 |
| FWLIPPTLHNLALYE [peptide 53] | 0.7 |
| MKYPKVKKYCLMSVK [peptide 45] | 7.77 |
| QKGTEMSMSQFVRYY [peptide 30] | 1.2 |
| LVKRPTVVDLVDWVD [peptide 38] | 0 |
| TKLEHLVKRPTVVDL [peptide 37] | 0.73 |
| TQRPIDRQRYDENED [peptide 9] | 0 |
| QTEATNAIAEMKYPK [peptide 43] | 0 |
| YNVISLEFSHTKLEH [peptide 35] | 5.95 |
| LVGSRRLVDVMDVNT [peptide 27] | 0 |
| LEFSHTKLEHLVKRP [peptide 36] | 0.89 |
| RLVDVMDVNTQKGTE [peptide 28] | 0 |
| WYHVFRGGKIFWLIP [peptide 51] | 0 |
| YTKCFEFESATQRPI [peptide 7] | 0 |
| VKKYCLMSVKGCFTD [peptide 46] | 100 |
| HLKEKQTEATNAIAE [peptide 42] | 2.03 |
| TVVDLVDWVDNMWPQ [peptide 39] | 0.27 |
| LALYEEWVLSGKQSD [peptide 55] | 0 |
| AEKQKKKTVIYTKCF [peptide 5] | 97 |
| QRDKLYNVISLEFSH [peptide 34] | 0 |
| NMWPQHLKEKQTEAT [peptide 41] | 0 |
| MSMSQFVRYYETPEA [peptide 31] | 19.2 |

Now from value to binder:

| Intensity (%) | Binder |
| --- | --- |
| 0 | PKPPTDGSTSPTSTP [peptide 88] |
| 0.03 | DEEGEGRDRAPKPPT [peptide 86] |
| 6.33 | PMQLRIYEIEDRTRV [peptide 68] |
| 24.6 | EWVLSGKQSDIFLGD [peptide 56] |
| 11.4 | RVERCQRIELKQGYT [peptide 59] |
| 1.74 | GWIHAVYTPVDSLVF [peptide 63] |
| 0 | GRDRAPKPPTDGSTS [peptide 87] |
| 0.04 | YPFYYEMCWYVLERY [peptide 72] |
| 0 | EEEEKDEEGEGRDRA [peptide 85] |
| 1.13 | IDAPRKPSIDGFSSD [peptide 79] |
| 0 | HSFNVPMQLRIYEIE [peptide 67] |
| 15.6 | IFLGDRVERCQRIEL [peptide 58] |
| 7.19 | GFSSDSWLEMEEEAC [peptide 81] |
| 6.61 | KPSIDGFSSDSWLEM [peptide 80] |
| 0 | QRSHLTQEYQRESML [peptide 76] |
| 0 | SWLEMEEEACDQQPQ [peptide 82] |
| 0.3 | QRIELKQGYTFFIPS [peptide 60] |
| 1.74 | RESMLIDAPRKPSID [peptide 78] |
| 0 | VYCVTQRSHLTQEYQ [peptide 75] |
| 0.54 | GGNILHSFNVPMQLR [peptide 66] |
| 0.85 | KQGYTFFIPSGWIHA [peptide 61] |
| 2.54 | FFIPSGWIHAVYTPV [peptide 62] |
